Experimental data reported in the nanobody polyreactivity screen of Harvey et al. (2022).

Assay: yeast display, Sf9 membrane polyspecificity reagent, FACS + sequencing; frameworks hold sequencing errors
How it was run: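 Nanobodies came from a synthetic yeast display library in Saccharomyces cerevisiae BJ5465, induced with galactose for 36–48 hours and stained for 1 hour at 4 °C with 10% biotinylated, detergent-solubilized Sf9 membrane reagent. Cells were enriched on streptavidin microbeads and then FACS-sorted, with low and high (top ~1%) gates set on anti-HA fluorescence for expression and streptavidin fluorescence for reagent binding. Each polyreactivity label reflects the gate a clone came from. Genes were amplified by colony PCR, sequenced by MiSeq 2 × 250 and filtered by CDR length.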

Row | Sequence | polyreactivity (PSR sort gate)
1 | QVQHVESRGGLVQAGGSLRLSCAASGIIFSRNAMGWSRKAPGKERELLSGITSSGGTTYYADSVKGRFTISRDNAKNTVYLQMNSLKAEDTAVYYCAAYSTQNYSYRRYYYWGQGTQVTVSS | high polyreactivity
2 | QVQLLESGGVLVQAGGSLLLSCAASGSIFSPYAMGRYRQAPGKERELVATISTIDGSTTYADSVKGRFTISRDYAKNTVYLQMKSLKPEDTAVYYCNAEYAYFKLWANPYDMDYWGQGTQVTVSS | low polyreactivity
3 | QVQLVESGGGLVQAGGSLRLSCAASGRIFLSYAIGWYRQAPGKERELVAAITSSGGSTYYADSVKGRFTISRDNAKNTVYFQMNSLKPEDTAVYYCAADYGDPRVNEYDYWGQGTQVTVSS | low polyreactivity
4 | QVQLVESGGGLVQAGGSLRLSCAASALTLRTYAMGWYRQAPGKERELVAAITTGGSTYYADSVKGRFTISRDNAKNTVYLQLNSLKPEDTAVYYCAADFIRYINRLLYDYWGQGTQVTVSS | low polyreactivity
5 | QVQLEESGGGLVQAGGSLRLSCAASGITFSLYVMGWFRPAPGKESELVATISFNVASTYADSVKGRFTISRVNAKNTVYLQMYSLTPEDTAVYYCNADTYWYRDSRYDYCGQGTQVTVSS | low polyreactivity
6 | QDQLVESGGGLVQAGGSLRLSCAASGFTFYSYAMGWYRQAPGKERELVAAISYRGGSTYYADSVKGRFTISRDNAKNTVYFQMNSLKPEDTAVYYCAARSPSAAYGSYGVYYWGQGTQVTVSS | high polyreactivity
7 | QVQLVESGGGLVQAGGSLRLSCAASGSISTVYAMGWSRQAPGKERELVAAISWSGGSTYYADSVKGRFTISRDNAKNTDYLQMNSLKPEDTAFYYCAVRGLLYHSYYSVRYDYWGQGTQVTVSS | high polyreactivity
8 | QVQLVESGGGLVQAGGSLRLSSAASGRIIRAYAMGWYRQAPGKERELVADISGGSNTNYADSVKGRFTISRDNAKNTVYLQMNSLKPEDTAVYYCAADAGYWESLWYPYGFYWGQGTQVTVSS | low polyreactivity
9 | QVQLVDSAGVLVQAGGSLSLICAASGRTYGIYAMGWYRQAPGKERELVADISSDASTSYAYSVKGRFTISRDNAKNTVYLQMNSLKAEDTAVYYCAADPGPYYDWGYYYWGQGTQVTVSS | low polyreactivity
10 | QVQLVESGGGLVQAGGSLRLSCAASGFIFVYNAMGWYRQAPGKERELVAAIDYGGGSTTYADSVKGRFTISRDNAKNTVYLQMNSLKPEDTAVYYCAAYYRYLDDIYEYEYWGQGTQVTVSS | low polyreactivity
11 | QVQLVESGGGLVQAGGSLRLSCAASGLTFYYYAMGWYRQAPGIEREFVAAINWDGGSTYYADSVKGRFTISRDKAKNTVYLQMNSLKPEDTAVYYCATGDTDYDYWGQGTQVTVSS | low polyreactivity
12 | QVQLVESVGGLVQAGGSLRLSCAASGSIFSSYAMGWYRQAPGKERELVAAITSGGSTYYADSVKGRFTISRDNAKNTVYLQMNSLKPVDPAVYYCAAREVLTSKLHMGYWGTGTQVTVSS | low polyreactivity
13 | QVQLVESGGGLVQAGGSLRLSCAASGITFGYYAMGWYRQAPGKERELVASISWSGDSTYYADSVKGRFTISRDNAKNTVYLQMNSLKPEDTAVYYCNRGSSWEYGAEYNYWGQGTQVTVSS | low polyreactivity
14 | QFQLVESGGGLVQAGGSLRLSCAASGIIFSLYAMGWYIQAPGKERELVAAITTGGRTYYADSVKGRFTISRDNAKNTVYFQMNSLKPEDTAVYYCAAQGPWQGGTTLSTNRGYWGQGTQVTVSS | high polyreactivity
15 | QVQLVESGGGLVQAGGSLRLSCAASGRIFWANAMGWYRQAPGKERELVAAINRRTGITYYADSVKGRFTISRDNAKNTVYLQMNSLNPEDTAVYYCAAARGKDGYSGQGTQVTVSS | high polyreactivity
16 | QVQLVESGGGLVQAGGSLRLSCAASVLIFYDNIGWYRQAPGKERELVAAIDSGGNTYADSVKGRFTISRDNAKNTVYLQMNSLKPEDTAVYYCAVDGGEFSSYGYWGQGTQVTVSS | low polyreactivity
17 | QVQLVESGGGLVQAGGSLRLSCAASGSIFNYYAMGWYRQAPGKERELVATITRGGSTYYADSVKGRFTISRDNAKNTVYLQMNRLKPEDTAVYYCAKVGRSTAYQNGYDYWGQGTQVTVSS | low polyreactivity
18 | QVQLVESGGGLVQAGGSLRLSCAASGRTFTYYAMGWYRQAPGKQRELVASINQNGGDTYYADSVKGRFTLSRDNAKNTDYLQMNSLKPADTAVYYCAAEAGYYVQTVAVDMGYWGQGTQVTVSS | low polyreactivity
19 | QVQLVESGGGLVQAGGSLRLSCASSGYTIPLYAMVWYRQAPGKERELVADINIGGASTYYADSVKGRFTISRDNAKYTVYLQMNSLKPEDTAVYYCAKEYYDGYFTTFEYDYWGQGTQVTVSS | low polyreactivity
20 | QVQLVESGGGLVQAGGSLRLSCAASGSIFWGNAMGWYRQAPGKERELVAAITGSGGSSYYADSVKGRFTISRDNAKNRVYLLMNSVKPEDTAVYYCADLFRTFYYWGQGTQVTVSS | high polyreactivity
21 | QVQLVESGGGLVQAGGSLRLSCAASGIIFSEYAMGWNRKAPGKERELVAAISKSGGRTYYADSVKGRFTISRDNAKNTVYLQMNSLKPEDTAVYYCAARHAPILGDHGMKYWGQGTQVTVSS | high polyreactivity
22 | QVQLVESGGGLVQAGGSLRLSCAASGRIFGVNAMGWYRQAPGKERELVADISSGGSTYYADSVKGRFTISRDNAKNTVNLQMNSLTPEYTAVYYCAVDKSVYVSYSFYFEYDYWGQGTQVTVSS | low polyreactivity
23 | QVQLVESGGGLVQAGGSLRLSCAASGFTFAFYTLGWYIQATGKETELVASISWRSGSTYYADSVKGRFTISRDNAKNSVYLQMNSLNPDDTAVYYCAADSAVSWFFYCGQGTQVTVSS | high polyreactivity
24 | QVQLVESGGGLVQAGGILRLSCAASGSIFGWYAMGWYRQAPGKERELVAGISWSGANTYYADSVKGRFTISRDNAKNTVYLQMNSLKPEDTAVYYCAAGPGRYYSRRYGYWGQGTQVTVSS | high polyreactivity
25 | QDQLVESGGGLVQAGGSLRLSCAASGRTCGYYTMGWYRQAPGKERELVATISSDGTTNYADSVKGRFTISRDNAKNTVYLQMNSLKQEDTAGYYCNADFRLQYYYRIYDYWGQGTQVTVSS | low polyreactivity
26 | QVQLVESGGGLVQAGGSLRLSCAASGFTFYYYAMGWYRQAPGKERELVAGINSDGNTYYADSVKGRFTISRDNAKNNVYLQMNSLKPEDTAVYYCAASKLWPKNFVRHDYWGQGTQVTVSS | low polyreactivity
27 | QVQHVESGGGLVQAGGRLRLSCAASGSIFGSNAMGWYRQEPGKERELVAVISRRGGSTYYADSVKGRFTISRDNAKNTVYLQMNSLKPEDTAVYYCADRVWYPRYDYWGQGTQVTVSS | high polyreactivity
28 | QVQLVESGGGVVQAGGSLRISCAASGSTFVRYAMGWYRQAPGKERELVASISSSGSTYYADSVKGRFTISRDYAKNTVNVELNCLNPEDNAVYYCAKQYGGRYGYWGQGSQVTVSS | low polyreactivity
29 | QVQLVESGGGLVQAGGSLRLSCAASGFTFGRYAMGWYRQAPGKERELVAAISYSGGSTYYADSVKGRFTISRDNAKNTVYLQMNSLKPEDTAVYYCAARDSYWSVYYWGQGTQVTVSS | high polyreactivity
30 | QVQLVESGGGLVQAGGSLRLSCAASGSIYYSYAMGWYRQAPGKERELVARITKRGGRTYYADSVKGRFTISRDNAKNTVYLQMNSLKPEDTAVYYCAATTGHRTYRYYYWGQGTQVTVSS | high polyreactivity
